Assay results: patent US20120064547A1 (PROBIODRUG, published 2012)
Where no end group is shown, it is not given here. Side-chain parts run from the residue outwards. [ ]: non-standard residue; d: D form. SMPH = maleimide crosslinker coupling C-terminal Cys to BSA; pGlu = O=C1CC[C@@H](C(=O)O)N1

How the values were obtained:
Aβ N3pE-40 peptide [1] = target: T1, Aβ N3pE-40 peptide (N-terminal Glu (position 3 of Aβ) cyclized to pyroglutamate); assay: SPR (Biacore, CM5 chip with coupled Aβ N3pE-40), overlay of hybridoma supernatants. The sheet carries the label Figure 6, but its content is that of the legend of FIG. 5
T1 construct: Synthetic peptide; also called AβpE3-40; amyloid β N3pE-40

N3E-BSA = assay: IgG ELISA, hybridoma supernatant on peptide-BSA coat
isoDAE-BSA = assay: as above
[2] = target: T2, BSA-pGlu-6166 peptide (pGlu-FRHDSGC conjugated to bovine serum albumin); assay: as above
T2 construct: also called N3pE-BSA
T2 peptide: [pGlu]FRHDSGC([SMPH-BSA])

N11pE-BSA = assay: as above
N11E-BSA = assay: as above
[3] = target: T3, PepSpot peptide No. 5 EFRHDSGYEVHHQ; assay: PepSpot peptide membrane
T3 construct: Spotted on a PepSpot membrane; also called spot number 5
T3 peptide: EFRHDSGYEVHHQ

[4] = target: T4, PepSpot peptide No. 7 FRHDSGYEVHHQK; assay: PepSpot peptide membrane
T4 construct: Spotted on a PepSpot membrane; also called spot number 7
T4 peptide: FRHDSGYEVHHQK

[5] = target: T5, PepSpot peptide No. 6 pEFRHDSGYEVHHQ; assay: PepSpot peptide membrane
T5 construct: Spotted on a PepSpot membrane; also called spot number 6; the specific Aβ N3pE-x spot
T5 peptide: [pGlu]FRHDSGYEVHHQ

Aβ N3pE-40 peptide [6] = target: T1, Aβ N3pE-40 peptide; assay: SPR Biacore 3000, AβpE3-40 on CM5 chip, bivalent analyte model
Neurotensin = target: T6, Neurotensin (human, UniProt P30990 151-163, N-terminal pyroglutamate (pGlu peptide)); assay: SPR (Biacore 3000), peptide on CM5 chip, antibody 25 µg/ml
T6 construct: Whole peptide or N-terminal region

Orexin A = target: T7, Orexin A (human, UniProt O43612 34-66, limits assumed, N-terminal pyroglutamate (pGlu peptide)); assay: as above
T7 construct: Whole peptide or N-terminal region
T7 peptide (looked up): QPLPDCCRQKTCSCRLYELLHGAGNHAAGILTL

MCP-2 = target: T8, MCP-2 (human, UniProt P80075 24-99, limits assumed, N-terminal pyroglutamate (pGlu peptide)); assay: as above
T8 construct: Whole peptide or N-terminal region
T8 sequence (peptide, looked up): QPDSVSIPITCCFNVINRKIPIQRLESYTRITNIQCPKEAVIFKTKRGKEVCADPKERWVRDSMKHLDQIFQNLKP

MCP-1 = MCP-1 (human, UniProt P13500 24-99, limits assumed, N-terminal pyroglutamate (pGlu peptide)); assay: as above
Gonadoliberin = target: T9, Gonadoliberin (human, UniProt P01148 24-33, N-terminal pyroglutamate (pGlu peptide)); assay: as above
T9 construct: Whole peptide or N-terminal region
T9 peptide (looked up): QHWSYGLRPG

Big Gastrin = target: T10, Big Gastrin (human, UniProt P01350 59-92, limits assumed, N-terminal pyroglutamate (pGlu peptide)); assay: as above
T10 construct: Whole peptide or N-terminal region
T10 peptide (looked up): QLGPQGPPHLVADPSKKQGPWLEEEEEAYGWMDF

B1: Aβ 17-4-3 (monoclonal antibody of hybridoma cell line 17-4-3, DSM ACC 2925) (antibody, V domains shown)
VH: EVKLVESGGGLVQPGGSRKLSCAASGFTFSDYGMAWVRQAPGKGPEWVAFISNLAYSIYYADTVTGRFTISRENAKNTLYLEMSSLRSEDTAMYYCARYDYDNILDYVMDYWGQGTSVTVSS
VL: DVVMTQTPLSLPVSLGDQASISCRSSQSLVHSDGNTYLHWYLQKPGQSPKLLIYKVSNRFSGVPDRFSGSGSGTDFTLKISRVEAEDLGVYFCSQSTHVPPTFGGGTKLEIKR
notes: Mouse hybridoma IgG; The entries as printed begin with a leader and end with the first residues of the constant region; Heavy chain amplified with primer MHCG2b, light chain with MKC; Tested as hybridoma culture supernatant; also called clone 17-4-3; antibody 17-4-3
binding result (Aβ N3pE-40 peptide [1]): binds
signal in ELISA (OD) (N3E-BSA): 0.32 OD 405 nm
signal in ELISA (OD) (isoDAE-BSA): 0.007 OD 405 nm
signal in ELISA (OD) [2]: 1.92 OD 405 nm
signal in ELISA (OD) (N11pE-BSA): 0.004 OD 405 nm
signal in ELISA (OD) (N11E-BSA): 0.003 OD 405 nm
binding result [3]: binds
binding result [4]: binds
binding result [5]: binds

B2: Aβ 5-5-6 (monoclonal antibody of hybridoma cell line 5-5-6, DSM ACC 2923) (antibody, V domains shown)
VH: EVQLQQSGPELVKPGASMKISCKASGYSFTGYTMNWVKQSHGKNLEWIGLINPYSGVTRYNQKFKGKATLIVDKSSSTAYMELLSLTSEDSAVYYCTREAKREWDETYWGQGTLVTVSA
VL: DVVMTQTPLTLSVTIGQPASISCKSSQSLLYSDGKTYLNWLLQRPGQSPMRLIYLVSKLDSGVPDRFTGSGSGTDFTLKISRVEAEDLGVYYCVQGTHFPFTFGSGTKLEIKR
notes: Mouse hybridoma IgG; The entries as printed begin with a leader and end with the first residues of the constant region; Heavy chain amplified with primer MHCG1, light chain with MKC; Tested as hybridoma culture supernatant; also called clone 5-5-6; antibody 5-5-6
binding result (Aβ N3pE-40 peptide [1]): binds
signal in ELISA (OD) (N3E-BSA): 0.126 OD 405 nm
signal in ELISA (OD) (isoDAE-BSA): 0.015 OD 405 nm
signal in ELISA (OD) [2]: 1.65 OD 405 nm
signal in ELISA (OD) (N11pE-BSA): 0.006 OD 405 nm
signal in ELISA (OD) (N11E-BSA): 0.004 OD 405 nm
binding result [3]: binds
binding result [4]: binds
binding result [5]: binds

B3: Aβ 24-2-3 (monoclonal antibody of hybridoma cell line 24-2-3, DSM ACC 2926) (antibody, V domains shown)
VH: QVQLQQSGAELVRPGSSVKISCKASGYIFNNYWINWVKQRPGQGLEWIGQIYPGDGDTNYNGKFKGKATLTADKSSSTAYMQLSSLTSEDSAVYFCAREGYIVYWGQGTLVTVSA
VL: not shown
notes: Mouse hybridoma IgG; The entries as printed begin with a leader and end with the first residues of the constant region; Heavy chain amplified with primer MHCG2b, light chain with MKC; Tested as supernatant and as purified antibody; also called clone 24-2-3; N3pE antibody clone 24-2-3
Kd (Aβ N3pE-40 peptide [6]): 101 nM
% cross reactivity (against AβpE3-40) (Neurotensin): < 1%
% cross reactivity (against AβpE3-40) (Orexin A): < 1%
% cross reactivity (against AβpE3-40) (MCP-2): < 1%
% cross reactivity (against AβpE3-40) (MCP-1): < 1%
% cross reactivity (against AβpE3-40) (Gonadoliberin): < 1%
% cross reactivity (against AβpE3-40) (Big Gastrin): < 1%
signal in ELISA (OD) (N3E-BSA): 0.218 OD 405 nm
signal in ELISA (OD) (isoDAE-BSA): 0.014 OD 405 nm
signal in ELISA (OD) [2]: 1.77 OD 405 nm
signal in ELISA (OD) (N11pE-BSA): 0.002 OD 405 nm
binding result [3]: binds
binding result [4]: binds
binding result [5]: binds
